Where a chain is given by its changes, count along the chain named. Values joined by “and” are separate entries in the source; they are usually repeats but may differ in a detail not shown here. Equal values may be shown once.
B1: KPEP11_20 (antibody, V domains shown)
VH: QSLEESGGRLVTPGTPLTLTCTVSGFSLNNYYMNWVRQAPGKGLEWIGIIYPDIDTTDYASWVKGRFTISKTSTTVDLKITSPTTEDTATYFCARSDIDYYTTRLDLWGQGTLVTISS
VL: AQVLTQTPSPVSAAVGGTVSINCQSSPSVYNNNWLSWFQQKPGQPPKLLIYGASTLASGVPSRFKGSGSGTQFTLTISDVQCDDAATYYCAGGYDSNSDTAFGGGTELEILG
notes: Rabbit IgG; also called anti-human EphA4 rabbit monoclonal antibody KPEP11_20
B2: KPEP11_13 (antibody, V domains shown)
VH: QSLEESGGRLVTPGTPLTLTCTVSGFSLSSYHMSWVRQAPGKGLEWIGIIYRSGNTYYANWAKGRFTISKTSTTVDLKITSPTTEDTATYFCARESSTFYGMDLWGPGTLVTVSS
VL: YVMMTQTPSSVSAAVGGTVTINCQASQSVYGNNELAWYQQKPGQRPKLLIYRASTLASGVPSRFKGSGSGTEFTLTISDLECADAATYYCLGYKSDDYTFGGGTKVEIKG
notes: Rabbit IgG; also called anti-human EphA4 rabbit monoclonal antibody KPEP11_13
B3: KPEP11_01 (antibody, V domains shown)
VH: B2 VH with L3V, Y58S
VL: B2 VL
notes: also called anti-human EphA4 rabbit monoclonal antibody KPEP11_01
B4: KPEP11_09 (antibody, V domains shown)
VH: B2 VH with L3V, Y58S
VL: B2 VL
notes: Rabbit IgG; also called anti-human EphA4 rabbit monoclonal antibody KPEP11_09
B5: KPEP11_02 (antibody, V domains shown)
VH: QSLEESGGRLVTPGGSLTLTCTVSGIDLSSYAMSWVRQAPEKGLEWIGFINNYGTYYASWAKGRFTISKTSTTVDLKVTSLTTEDTATYFCVRGGRSPNYDIVSGDIWGPGTLVTVSS
VL: YVMMTQTPSSVSEPVGGTVTIKCQASQNIYNSLAWYQQKPGQRPKLLIADASELASGVPQRFSGSGSGTQFTLTISDLECADAATYYCQSSSAGDSYVGGFGGGTEVVVKG
notes: Rabbit IgG; also called anti-human EphA4 rabbit monoclonal antibody KPEP11_02
B6: KPEP11_07 (antibody, V domains shown)
VH: QEQLKESGGRLVTPGGSLTLTCTVSGIDLSSYAMSWVRQAPEKGLEWIGFINMYGTYYASWAKGRFTISRTSTTVDLKVTSLTTEDTATYFCVRGGRSPDYDIVSGDIWGPGTLVTVSS
VL: B5 VL
notes: Rabbit IgG; also called anti-human EphA4 rabbit monoclonal antibody KPEP11_07
B7: KPEP11_05 (antibody, V domains shown)
VH: B5 VH
VL: B5 VL
notes: Rabbit IgG; also called anti-human EphA4 rabbit monoclonal antibody KPEP11_05
B8: KPEP11_18 (antibody, V domains shown)
VH: B1 VH with V23I, N29S, N30S, Y31F, M33I, K42R, T56A, I98V, I116V
VL: DPMMTQTASPVSAAVGGTVSISCQSNKSVYSNWLSWFQQKPGQPPKLLIYGASTLASGVPSRFKGSGSGTQFTLTVSDVQCDDAATYFCLGGYRDNSDNAFGGGTEVVVKG
notes: Rabbit IgG/kappa; Used coated or HRP-labeled in the sandwich ELISAs; also called anti-human EphA4 rabbit monoclonal antibody KPEP11_18; HRP-labeled KPEP11_18
B9: KPEP11_12 (antibody, V domains shown)
VH: B2 VH
VL: B2 VL
notes: Rabbit IgG; also called anti-human EphA4 rabbit monoclonal antibody KPEP11_12

The binders below were run against FN2 (assay: ELISA).
Description: (§1) For the anti-human EphA4 monoclonal antibodies produced in Example 1, evaluation of binding activity to various EphA4 was performed according to the following steps. Mouse anti-6-His antibodies (R&D) were coated on the wells of a 96-well plate (Thermo […]). After incubating at room temperature for 1 hour, the wells were blocked at room temperature for 1 hour with 1% Block Ace (KAC). After washing three times with 0.02% Tween 20/PBS, the wells were seeded with human EphA4 extracellular domain-MBP-His protein, human EphA4 ligand binding domain-MBP-His protein, human EphA4 fibronectin III-type domain 1-MBP-His protein, human EphA4 fibronectin III-type domain 2-MBP-His protein, or MBP-His protein (final concentration 1 nM), and this was incubated at room temperature for 1 hour. After washing three times, anti-human EphA4 rabbit monoclonal antibody (10 pg/mL) was added, and this was incubated at room temperature for 1 hour. After washing three times, horseradish peroxidase labeled goat anti-rabbit IgG polyclonal antibody (abcam) was added, and this was incubated at room temperature for 1 hour. After washing three times, TMBZ (3,3′,5,5′-tetramethylbenzidine, KPL) solution was added to the wells, and this was incubated for four and a half minutes at room temperature. Equal amounts of quenching solution (2 N H₂SO₄, FUJIFILM Wako) were added to the wells, and absorbance at 450 nm and 650 nm were read with a microplate reader (Thermo […]).

Binder | absorbance
B1 | 0.238
B2 | 0.36
B3 | 0.235
B4 | 0.242
B5 | 0.227
B6 | 0.22
B7 | 0.225

What follows are binders tested against T1, human EphA4 extracellular domain-MBP-His protein (human) (assay: ELISA).
T1 construct: also called human EphA4 extracellular domain (ECD); Human EphA4 extracellular domain-MBP-His 10
Description: as §1

Binder | absorbance
B8 | 1.42
B1 | 1.26
B9 | 1.29
B2 | 1.31
B4 | 1.24
B5 | 1.35
B6 | 1.42
B7 | 1.43

These binders were tested against FN1 (assay: ELISA).
Description: as §1

Binder | absorbance
B8 | 0.222
B1 | 0.207
B9 | 0.255
B2 | 0.318
B3 | 0.228
B4 | 0.24
B5 | 0.213
B6 | 0.226
B7 | 0.213

Each binder was assayed against MBP (assay: ELISA).
Description: as §1

Binder | absorbance
B1 | 0.274
B9 | 0.302
B2 | 0.402
B3 | 0.231
B4 | 0.291
B6 | 0.24
B7 | 0.239

These binders were tested against human EphA4 ligand binding domain-MBP-His protein (human, UniProt P54764 20-209; P0AEX9 29-392 = MBP) (assay: ELISA).
Description: as §1

Binder | absorbance
B8 | 1.43
B1 | 1.42
B9 | 0.283
B2 | 0.348
B3 | 0.236
B5 | 1.32
B6 | 1.39
B7 | 1.32

What follows are binders tested against T2, human EphA4 extracellular domain-SEAP-His protein (human) (assay: ELISA).
T2 sequence (chain, as listed by the source limits assumed): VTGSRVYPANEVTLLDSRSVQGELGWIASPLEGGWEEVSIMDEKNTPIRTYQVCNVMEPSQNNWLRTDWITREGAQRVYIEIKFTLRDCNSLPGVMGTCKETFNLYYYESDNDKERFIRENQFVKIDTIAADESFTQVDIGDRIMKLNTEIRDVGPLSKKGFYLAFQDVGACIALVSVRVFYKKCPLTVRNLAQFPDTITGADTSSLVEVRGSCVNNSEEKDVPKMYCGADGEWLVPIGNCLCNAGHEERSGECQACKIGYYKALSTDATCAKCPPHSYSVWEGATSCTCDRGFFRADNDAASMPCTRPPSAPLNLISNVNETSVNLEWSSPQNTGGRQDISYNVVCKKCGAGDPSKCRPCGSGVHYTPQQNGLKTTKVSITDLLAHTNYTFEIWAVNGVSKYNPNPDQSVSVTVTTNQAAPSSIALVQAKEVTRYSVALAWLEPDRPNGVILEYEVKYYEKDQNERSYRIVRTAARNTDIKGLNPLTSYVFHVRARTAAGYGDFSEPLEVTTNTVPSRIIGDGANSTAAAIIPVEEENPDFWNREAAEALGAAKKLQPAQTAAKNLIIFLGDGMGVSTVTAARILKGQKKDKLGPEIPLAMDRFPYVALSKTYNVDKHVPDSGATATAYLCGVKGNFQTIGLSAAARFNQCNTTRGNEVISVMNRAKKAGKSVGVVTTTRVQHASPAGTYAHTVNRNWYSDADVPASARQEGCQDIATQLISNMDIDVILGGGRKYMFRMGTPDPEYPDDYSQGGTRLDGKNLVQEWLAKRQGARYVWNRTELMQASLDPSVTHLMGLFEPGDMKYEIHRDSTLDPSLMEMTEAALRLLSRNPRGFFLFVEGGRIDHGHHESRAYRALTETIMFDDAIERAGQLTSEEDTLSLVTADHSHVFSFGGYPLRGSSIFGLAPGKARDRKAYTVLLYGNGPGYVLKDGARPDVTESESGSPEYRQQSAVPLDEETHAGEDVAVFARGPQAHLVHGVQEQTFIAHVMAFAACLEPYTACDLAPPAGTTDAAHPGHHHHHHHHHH

Binder | EC50 (read off the curve) [pM]
B8 | ~10

These binders were tested against T3, monkey EphA4 extracellular domain-SEAP-His protein (monkey) (assay: ELISA).
T3 construct: the fusion as a whole has none; not shown: SEAP-His part
T3 sequence (chain, as listed by the source): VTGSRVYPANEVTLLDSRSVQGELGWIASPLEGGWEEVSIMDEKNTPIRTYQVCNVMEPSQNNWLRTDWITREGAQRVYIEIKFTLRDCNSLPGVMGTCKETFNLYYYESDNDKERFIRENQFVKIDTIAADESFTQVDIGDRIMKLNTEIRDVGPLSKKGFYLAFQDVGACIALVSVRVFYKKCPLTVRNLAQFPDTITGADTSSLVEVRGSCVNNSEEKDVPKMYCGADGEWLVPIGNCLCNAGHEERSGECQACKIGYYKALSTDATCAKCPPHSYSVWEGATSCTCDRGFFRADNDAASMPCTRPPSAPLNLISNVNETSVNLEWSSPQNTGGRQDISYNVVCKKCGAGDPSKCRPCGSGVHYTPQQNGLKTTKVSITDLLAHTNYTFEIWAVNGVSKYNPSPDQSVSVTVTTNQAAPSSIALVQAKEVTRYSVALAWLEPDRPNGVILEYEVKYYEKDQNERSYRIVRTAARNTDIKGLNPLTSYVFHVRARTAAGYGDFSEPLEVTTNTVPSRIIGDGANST

Binder | EC50 (read off the curve) [pM]
B8 | ~10

The binders below were run against T1, human EphA4 extracellular … (assay: SPR Biacore T200, EphA4 ECD-MBP-His captured by anti-His antibody, antibody as analyte, 1:1 model, mean of three).
Description: (§2) The binding affinity of KPEP11_04, KPEP11_08, KPEP11_10, and KPEP11_18 against human EphA4 was determined by the surface plasmon resonance method (SPR method) employing Biacore T200 (Cytiva). First, an anti-His antibody (Cytiva, 28-9950-56) was diluted to 10 μg/mL with the immobilizing buffer (10 mM sodium acetate, pH 4.5), and immobilized onto a sensor chip CM5 according to the protocol attached to Biacore T200. Immobilization was performed by the amine coupling method employing N-hydroxysuccinimide (NHS) and N-ethyl-N′-(3-dimethylaminopropyl) carbodiimide hydrochloride salt (EDC), and ethanolamine was employed for blocking (sensor chips or immobilizing reagents were all from Cytiva). Human EphA4 extracellular domain-MBP-His 10 was diluted with a running buffer HBS-EP+ (Cytiva), and pumped onto a flow cell for 120 seconds to allow capturing (captured amount of about 3 RU). […] At the end of each observation, 10 mM glycine hydrochloric acid pH 1.5 (60 seconds) and 3 M MgCl₂ (30 seconds) were added to regenerate the sensor chips. Fitting analysis by the 1:1 binding model employing the BIA evaluation software attached to the system was performed against the binding reaction curves obtained to calculate the binding affinity against human EphA4 (KD=kd/ka). The experiment described above was carried out three times, and the mean was calculated for each parameter.

Binder | Kd [pM] | koff [s⁻¹]
B8 | 389 | 0.00127

The binders below were run against T1, human EphA4 extracellular … (assay: SPR Biacore T200, EphA4 ECD-MBP-His captured by anti-His antibody, antibody as analyte, 1:1 model).
Description: as §2

Binder | Kd | koff | kon
B8 | 416 pM and 382 pM | 0.00128 s⁻¹ and 0.00137 s⁻¹ and 0.00127 s⁻¹ | 3.06e+06 M⁻¹ s⁻¹ and 3.32e+06 M⁻¹ s⁻¹ and 3.44e+06 M⁻¹ s⁻¹

Target: T2, human EphA4 extracellular …
Assay: ELISA
Remark: another data set of the same source
Description: (§3) For the anti-human EphA4 monoclonal antibodies produced in Example 1, evaluation of binding activity to various EphA4 was performed according to the following steps. Mouse anti-6-His antibodies (R&D) were coated on the wells of a 96-well plate (Thermo […]). After incubating at room temperature for 1 hour, the wells were blocked at 4° C. overnight with 1% Block Ace (KAC). After washing three times with 0.02% Tween 20/PBS, the wells were seeded with mouse EphA4 extracellular domain-SEAP-His protein, rat EphA4 extracellular domain-SEAP-His protein, rabbit EphA4 extracellular domain-SEAP-His protein, monkey EphA4 extracellular domain-SEAP-His protein, human EphA4 extracellular domain-SEAP-His protein, or SEAP-His protein (final concentration 1 nM), and this was incubated at room temperature for 1 hour. After washing three times, anti-human EphA4 rabbit monoclonal antibody (10 pg/mL) was added, and this was incubated at room temperature for about 1 hour. After washing three times, horseradish peroxidase labeled goat anti-rabbit IgG polyclonal antibody (abcam) was added, and this was incubated at room temperature for 1 hour. After washing three times, TMBZ (3,3′,5,5′-tetramethylbenzidine, KPL) solution was added to the wells, and this was incubated for 3 minutes at room temperature. Equal amounts of quenching solution (2 N H₂SO₄, FUJIFILM Wako) were added to the wells, and absorbance at 450 nm and 650 nm were read with a microplate reader (Thermo […]).

Binder | absorbance
B8 | 1.23
B1 | 1.16
B9 | 1.22
B2 | 1.18
B3 | 1.21
B4 | 1.14
B5 | 1.25
B6 | 1.22

The binders below were run against T4, Rabbit (assay: ELISA).
T4 construct: also called rabbit EphA4 extracellular domain-SEAP-His protein
Description: as §3

Binder | absorbance
B8 | 0.059
B1 | 0.046
B9 | 0.055
B2 | 0.083
B3 | 0.045
B5 | 0.04
B7 | 0.035

Target: T3, monkey EphA4 extracellular …
Assay: ELISA
Remark: another data set of the same source
Description: as §3

Binder | absorbance
B8 | 1.18
B1 | 1.15
B9 | 1.19
B2 | 1.17
B3 | 1.18
B4 | 1.15
B5 | 1.2
B6 | 1.18
B7 | 1.24

Each binder was assayed against T5, Mouse (assay: ELISA).
T5 construct: also called mouse EphA4 extracellular domain-SEAP-His protein
Description: as §3

Binder | absorbance
B1 | 0.052
B9 | 0.059
B2 | 0.082
B3 | 0.049
B4 | 0.079
B5 | 0.048
B6 | 0.045
B7 | 0.045

The binders below were run against T6, Rat (assay: ELISA).
T6 construct: also called rat EphA4 extracellular domain-SEAP-His protein
Description: as §3

Binder | absorbance
B8 | 0.067
B1 | 0.062
B9 | 0.054
B2 | 0.086
B3 | 0.042
B4 | 0.064
B6 | 0.044
B7 | 0.043

These binders were tested against T7, SEAP (assay: ELISA).
T7 construct: negative control antigen; also called SEAP-His protein
Description: as §3

Binder | absorbance
B8 | 0.054
B1 | 0.067
B9 | 0.067
B2 | 0.099
B3 | 0.052
B4 | 0.07
B5 | 0.071
B6 | 0.05
B7 | 0.043
